Key:
[1] = target: T1, GPC3 N-terminal fragment (polypeptide consisting of the amino acid sequence represented by SEQ ID NO: 155) (human); assay: FCM of IgG on GPC3 N-terminal fragment-expressing cell line
T1 construct: domain: transmembrane domain; also called GPC3 N-terminal fragment-expressing cell line; N-terminal polypeptide of GPC3; not shown: HA tag added to the N terminus by the pDisplay vector; myc tag added to the C terminus of the PDGFR by the pDisplay vector

[2] = target: T2, GPC3 C-terminal fragment (polypeptide consisting of the amino acid sequence represented by SEQ ID NO: 156) (human); assay: FCM of IgG on GPC3 C-terminal fragment-expressing cell line
T2 construct: domain: transmembrane domain; also called GPC3 C-terminal fragment-expressing cell line; C-terminal polypeptide of GPC3; not shown: HA tag added to the N terminus by the pDisplay vector; myc tag added to the C terminus of the PDGFR by the pDisplay vector
T2 sequence (P09619 other isoform, or with tags, fused parts or gaps): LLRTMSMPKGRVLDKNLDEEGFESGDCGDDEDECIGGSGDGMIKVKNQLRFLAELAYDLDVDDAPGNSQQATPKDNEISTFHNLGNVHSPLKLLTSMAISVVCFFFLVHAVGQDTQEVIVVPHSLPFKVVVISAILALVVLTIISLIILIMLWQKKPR

T1 sequence (P09619 other isoform, or with tags, fused parts or gaps): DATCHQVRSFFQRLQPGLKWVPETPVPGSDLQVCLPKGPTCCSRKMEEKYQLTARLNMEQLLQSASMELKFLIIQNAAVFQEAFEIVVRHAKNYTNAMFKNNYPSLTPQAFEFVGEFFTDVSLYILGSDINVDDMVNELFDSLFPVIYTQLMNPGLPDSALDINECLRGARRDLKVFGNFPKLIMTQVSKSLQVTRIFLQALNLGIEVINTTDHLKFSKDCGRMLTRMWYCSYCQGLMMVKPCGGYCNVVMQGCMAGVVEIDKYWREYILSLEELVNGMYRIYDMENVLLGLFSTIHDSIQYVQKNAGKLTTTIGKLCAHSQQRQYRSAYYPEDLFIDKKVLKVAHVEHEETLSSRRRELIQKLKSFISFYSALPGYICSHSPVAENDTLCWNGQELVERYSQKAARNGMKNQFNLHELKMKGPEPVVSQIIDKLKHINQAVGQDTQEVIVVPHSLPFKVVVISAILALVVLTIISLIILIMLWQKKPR

Binder	binding result [1]	binding result [2]
IgG clone TF1413-03e015 (antibody, V domains shown, also called TF1413-03e015 IgG antibody) VH: EVQLQQSGPELVKPGASMKISCKASGYSFTGYTMNWVKQSHGKNLEWIGLINPYNGGTSYNQKFKGKATLTVDKSSSTAYMELLSLTSEDSAVYYCARGDYYPPYAMDYWGQGTSVTVSS VL: DIVMSQSPKFMSTSVGDRVSVTCKASQNVGTNVAWYQQKPGQSPKPLIYSASYRYSGVPDRFTGSGSGTDFTLTISNVQSEDLAEYFCQQYNRYPLTFGVGTKLEIKR	no binding	–
IgG clone TF1413-02e014 (antibody, V domains shown, also called TF1413-02e014 IgG antibody) VH: QVQLKQSGAELVRSGASVKLSCTASGFNIKDYYMHWVKQRPEQGLEWIGWIDPENGDTEYAPKFQGKATMTADTSSNTAYLQLSSLTSEDTAVYYCNAGYYDYDGYAMDYWGQGTSVTVSS VL: DIVLTQSPKFMSTSVGDRVSITCKASQDVGTAVAWYQQKPGQSPKLLIYWASTRHTGVPDRFTGSGSGTDFTLTISNVQSEDLADYFCQQYSSYPLTFGGGTKLEIKR	binds	no binding
IgG clone TF1413-03e005 (antibody, V domains shown, also called TF1413-03e005 IgG antibody) VH: QVQLKESGAELVRSGASVKLSCTASGFNIKDYYMHWVKQRPEQGLEWIGWIDPENGDTEYAPKFQGKATMTADTSSNTAYLQLSSLTSEDTAVYYCNAFYYDYDGYAMDYWGQGTSVTVSR VL: DVVMTQTPSSLSASLGERVSLTCRASQEISGYLSWLQQKPDGTIKRLIYAASTLDSGVPKRFSGSRSGSDYSLTISSLESEDFADYYCLQYASYPLTFGAGTKLELKR	binds	no binding
IgG clone TF1413-02d039 (antibody, V domains shown, also called TF1413-02d039 IgG antibody) VH: EVKLVESGGGLVKPGGSLKLSCAASGFAFSSYDMSWVRQTPEKRLEWVAYISSGGGSTYYPDTVKGRFTISRDNAKNTLYLQMSSLKSEDTAMYYCARRGLRRAMDYWGQGTSVTVSS VL: DVVMTQTPLSLPVSLGDQASISCRSSQSLVHSNGNTYLHWYLQKPGQSPKLLIYKVSNRFSGVPDRFSGSGSGTDFTLKISRVEAEDLGVYFCSQSTHVPLTFGAGTKLELKR	–	no binding
IgG clone TF1413-02e004 (antibody, V domains shown, also called TF1413-02e004 IgG antibody) VH: QVQLQQSGAELVKPGAPVKLSCKASGYTFTSYWMNWVKQRPGRGLEWIGRIDPSDSETHYNQKFKDEATLTVDKSSSTAYIQLSSLTSEDSAVYYCARGYYAMDYWGQGTSVTVSS VL: DIVLTQSPKFMSTSVGDRVSITCKASQDVSTAVAWYQQKPGQSPKLLIYSASYRYTGVPDRFTGSGSGTDFTFTISSVQAEDLAVYYCQQHYSTPTFGGGTKLEIKR	binds	no binding
IgG clone TF1413-03e004 (antibody, V domains shown, also called TF1413-03e004 IgG antibody) VH: QVQLKQSGAELVKPGAPVKLSCKASGYTFTSYWMNWVKQRPGRGLEWIGRIDPSDSETHYNQKFKDKATLTVDKSSSTAYIQLSSLTSEDSAVYYCARGYYGSNYWGQGTTLTVSS VL: DIKMTQSPKFMSTSVGDRVSVTCKASQNVGTNVAWYQQKPGQSPKALIYSASYRYSGVPDRFTGSGSGTDFTLTISNVQSEDLAEYFCQQYNSYPLTFGAGTKLELKR	–	no binding
IgG clone TF1413-02d028 (antibody, V domains shown, also called TF1413-02d028 IgG antibody; scFv clone [TF1413-02d028] antibody) VH: QVQLKESGPELEKPGASVKISCKASGYSFTGYNMNWVKQSNGKSLEWIGNIDPYYGGTSYNQKFKGKATLTVDKSSSTAYMQLKSLTSEDSAVYYCARGDYRAYYFDYWGQGTTLTVSS VL: DIQMTQSPKFMSTSVGDRVSITCKASQNVRTAVAWYQQKPGQSPKALIYLASNRHTGVPDRFTGSGSGTDFTLTISNVQSEDLADYFCLQHWNYPLTFGAGTKLELKR	binds	no binding
IgG clone TF1413-02e040 (antibody, V domains shown, also called TF1413-02e040 IgG antibody) VH: EVMLVESGPELVKPGASMKISCKASGYSFTGYTMNWVKQSHGKNLEWIGLINPYNGGTSYNQNFKGKATLTVDKSSSTAYMELLSLTSEDSAVYYCARGYYGRFDYWGQGTTLTVSS VL: DILLTQSPKFMSTSVGDRVSITCKASQNVRTAVAWYQQKPGQSPKALIYLASNRHTGVPDRFTGSGSGTDFTLTISNVQSEDLADYFCLQHWNYPLTFGAGTKLELKR	binds	no binding
IgG clone TF1413-03e034 (antibody, V domains shown, also called TF1413-03e034 IgG antibody) VH: EVQLQQSGPELEKPGASVKISCKASGYSFTGYNMNWVKQSNGKSLEWIGNIDPYYGGTSYNQKFKGKATLTVDKSSSTAYMQLKSLTSEDSAVYYCARGNYGYYAMDYWGQGTSVTVSS VL: DIVMSQSPKFMSTSVGDRVSITCKASQNVRTAVAWYQQKPGQSPKALIYLASNRHTGVPDRFTGSGSGTDFTLTISNVQSEDLADYFCLQHWNYPLTFGAGTKLELKR	binds	no binding
IgG clone TF1413-02e030 (antibody, V domains shown, also called TF1413-02e030 IgG antibody) VH: EVQLQQSGAELVRPGALVKLSCKASGFNIKDYYMHWVKQRPEQGLEWIGWIDPENGNTIYDPKFQGKASITADTSSNTAYLQLSSLTSEDTAVYYCAISTMITTLDYWGQGTTLTVSS VL: not shown	–	no binding

Source: patent US20190359698A1 (YAMAGUCHI UNIVERSITY, published 2019)
